Target: the molecule itself
Experiment: SEC; HiLoad 16/600 Superdex 75 pg, 20 mmol/L Tris-HCl pH 8.0, 500 mmol/L NaCl, 1 ml/min; size by Gel Filtration Standard (Bio-Rad)

B1: recombinant Neisseria gonorrhoeae sedoheptulose-7-phosphate isomerase GmhA, untagged (rGmhAGC) (enzyme, Neisseria gonorrhoeae FA1090, UniProt Q5F5E3 1-197, looked up)
chain: MTTLQERVAAHFAESIRAKQEAEKILVEPTVQAAELMLQCLMNDGKILACGNGGSAADAQHFAAEMTGRFEKERMELAAVALTTDTSALTAIGNDYGFDHVFSKQVRALGRAGDVLVGISTSGNSANVIEAVKAAHERDMHVIALTGRDGGKIAAMLKDTDVLLNVPHPRTARIQENHILLIHAMCDCIDSVLLEGM
notes: GmhA (sedoheptulose-7-phosphate isomerase) of N. gonorrhoeae FA1090, encoded by ngo1986; 197 amino acids, predicted mass 21.093 kDa; ngo1986 amplified without its stop codon and cloned into NcoI/HindIII of pRSF-NT; His tag removed by TEV protease; also called NGO1986; 6 × His-tag-free rGmhAGC; source: E. coli BL21(DE3), purified (IMAC, TEV cleavage, Ni-NTA); not shown: His6, N-terminal, cleaved
stoichiometry N: 4
